# Source: patent US12098206B2, “PDGF receptor antibody and use thereof” (Seoul National University R&DB Foundation, priority 2018, dated 2024)
# T1: mPDGFR-β (Mus musculus, UniProt P05622)
# T1 construct: mPDGFR-β
# T1 sequence (P05622 32-530): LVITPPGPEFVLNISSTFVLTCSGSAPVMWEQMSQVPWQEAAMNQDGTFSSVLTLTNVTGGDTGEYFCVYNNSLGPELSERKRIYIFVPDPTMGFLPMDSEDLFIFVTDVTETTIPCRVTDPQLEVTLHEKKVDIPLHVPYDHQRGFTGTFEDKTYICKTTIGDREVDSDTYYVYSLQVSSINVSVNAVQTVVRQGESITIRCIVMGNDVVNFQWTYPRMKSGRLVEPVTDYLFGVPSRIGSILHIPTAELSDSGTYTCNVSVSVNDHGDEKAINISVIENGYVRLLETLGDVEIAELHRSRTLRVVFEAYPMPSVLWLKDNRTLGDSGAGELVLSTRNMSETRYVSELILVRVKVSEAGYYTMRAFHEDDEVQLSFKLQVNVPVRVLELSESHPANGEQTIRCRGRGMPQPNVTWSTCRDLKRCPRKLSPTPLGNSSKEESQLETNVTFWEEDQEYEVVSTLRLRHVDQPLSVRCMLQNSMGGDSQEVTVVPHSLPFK
# B1: PRb-CN01: anti-mPDGFR-β chicken scFv clone (VH SEQ ID NO 7, VL SEQ ID NO 8), tested as scFv-Cκ-anti-cotinine scFv bispecific antibody (antibody, V domains shown)
# VH: AVTLDESGGGLQTPGGALSLVCKASGFTFSDRAMHWVRQAPGKGLEWVGLITNTGGSTNYGAAVKGRATISRDNGQSTVRLQLNNLRAEDTGTYYCTRGVGSWAHGGRIDAWGHGTEVIVSS
# VL: LTQPSSVSANPGETVKITCSGGSGSYGWFQQKSPGSAPVTVIYSNNQRPSDIPSRFSGSKSGSTNTLTITGVQAEDEAIYYCGTRDSSYVGIFGAGTTLTVL
# modifications: VH of PRb-CN01; VL of PRb-CN01
# Key:
# MOLT-4 cells = experiment: Flow cytometry binding to MOLT-4 cells not expressing mPDGFR-β; conditions: 100 nM; FIG. 6
# Protocol: The present inventors tested the binding ability of the bispecific antibody of scFv-Cκ-scFv fusion proteins in MOLT-4 cells not expressing mPDGFR-β by flow cytometry analysis. MOLT-4 cells were cultured with a bispecific antibody of scFv-Cκ-scFv fusion protein (100 nM) at 4° C. for 1 hour. After washing as described above, the detection was conducted by treating with an APC-anti human Cκ antibody. The MOLT-4 cells were purchased from the Korea Cell Line Bank and prepared by culturing in RPMI-1640 (Welgene, Seoul, Korea) medium added by 10% fetal bovine serum, 1% penicillin, and streptomycin.
# mPDGFR-β = target: T1, mPDGFR-β; experiment: Competition enzyme immunoassay with mPDGF-BB; type: binding; conditions: mPDGF-BB 100 nM; FIG. 4a
# Protocol: In order to confirm the competition between the bispecific antibody according to the present invention and mPDGF-BB, the microtiter plate was coated with mPDGFR-β-Fc chimera as mentioned above and then blocked. The microtiter plate was treated with various concentrations of the bispecific antibody (0.06 nM-1 μM) with or without addition of mPDGF-BB (100 nM), and then incubated at 37° C. for 2 hours. The washing, incubation, and detection were performed in the same manner as the enzyme immunoassay described above.
# A competition enzyme immunoassay was developed to examine the effect of mPDGF-BB on the binding ability of anti-mPDGFR-β x cotinine scFv-Cκ-scFv fusion protein. The serially diluted bispecific antibodies (anti-mPDGFR-β scFv-Cκ-cotinine scFv) were incubated on wells coated with mPDGFR-β-Fc chimeric fusion protein with or without mPDGF-BB. HRP-anti-human Cκ antibody was incubated and then TMB was added. […] However, the binding ability of PRb-CN01 was not inhibited, so it confirmed that PRb-CN01 binds to mPDGFR-β in a noncompetitive manner to mPDGF-BB.
molecule,measurement,setting,value
B1,binding to MOLT-4 cells,MOLT-4 cells,neither PRb-CN01 nor the anti-HER2 bispecific antibody of scFv-Cκ-scFv fusion antibody binds
same,binding ability to mPDGFR-β in the presence of mPDGF-BB,mPDGFR-β,not inhibited
